Positions count from the first letter of the chain named.
Legend:
Conditions in all cases: protein: recombinant; tags: N-terminal 6His; chain copies: 2; label: 5' biotin on strand 1; blunt
YpdB = target: T1, YpdB (Escherichia coli, UniProt P0AE39 1-244); experiment: SPR; 1-50 nM protein; lower maximal binding rate and affinity than D53E; SPR (Biacore T200, SA chip): HBS-EP, 10 mM HEPES pH 7.4, 150 mM NaCl, 3 mM EDTA, 0.005% P20, 25 C
T1 sequence: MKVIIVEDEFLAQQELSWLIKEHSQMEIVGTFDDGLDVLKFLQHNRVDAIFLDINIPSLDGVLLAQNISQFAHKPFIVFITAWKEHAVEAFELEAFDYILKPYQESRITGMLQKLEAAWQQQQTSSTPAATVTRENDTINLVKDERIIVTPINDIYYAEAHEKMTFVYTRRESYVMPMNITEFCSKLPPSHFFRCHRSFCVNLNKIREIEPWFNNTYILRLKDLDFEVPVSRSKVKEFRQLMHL

YpdB-D53E [1] = target: T2, YpdB-D53E (Escherichia coli, UniProt P0AE39 1-244, D53E); experiment: SPR; overall affinity from maximal binding rates, active protein concentration; SPR (Biacore T200, SA chip): HBS-EP, 10 mM HEPES pH 7.4, 150 mM NaCl, 3 mM EDTA, 0.005% P20, 25 C
T2 sequence: T1 sequence with D53E

YpdB-D53E [2] = target: T2, YpdB-D53E; experiment: SPR; 1-50 nM protein; binding completely abolished; SPR (Biacore T200, SA chip): HBS-EP, 10 mM HEPES pH 7.4, 150 mM NaCl, 3 mM EDTA, 0.005% P20, 25 C

B1: PyhjX (dsDNA)
DNA 1: GGGGCGCGTCATTCATTCCTGAACTAAGGCATTTCATTCCGTTCTGATGGCATTTCATGCCGGGGG
DNA 2: CCCCCGGCATGAAATGCCATCAGAACGGAATGAAATGCCTTAGTTCAGGAATGAATGACGCGCCCC
In the case of B1, the binding result (YpdB) is reported as “binds” and the Kd (YpdB-D53E [1]) is reported as 10 nM.

B2: PyhjX_A (site A inactivated) (dsDNA)
DNA 1: GGGGCGCGTCATTCATTCCTGAACTAATTACGGGACGTCCGTTCTGATGGCATTTCATGCCGGGGG
DNA 2: CCCCCGGCATGAAATGCCATCAGAACGGACGTCCCGTAATTAGTTCAGGAATGAATGACGCGCCCC
B2: no binding (YpdB-D53E [2]).

From paper PMC4847170, “Insights into the DNA-binding mechanism of a LytTR-type transcription regulator”
